Tests used:
CXCL-12α = molecular target: T1, CXCL-12α (Homo sapiens, UniProt P48061); test: vWF binding to recombinant GFs (ELISA); details: VEGF-A121 signal as baseline
T1 construct: All GFs and chemokines were purchased in their mature forms; purchased PeproTech; host or cells: Escherichia coli
Method: (§1) ELISA tests were performed as previously reported1. In brief, ELISA plates (med-binding, Greiner Bio-One) were coated with 50 nM GFs at 37° C. for 2 hrs. After blocking with 2% BSA solution containing PBS-T, 1 μg/mL of plasma-derived vWF (EMD Millipore) was added. Bound vWF was detected with 1 μg/mL of rabbit anti-human vWF antibody (Sino Biological). Then, HRP conjugated goat anti-rabbit antibody (Jackson ImmunoResearch) was added. After 60 min of incubation, 50 μL TMB substrate (Sigma-Aldrich) was added. The reaction was stopped by adding 25 μL of 2N H2SO4. Subsequently, the absorbance at 450 nm was measured and subtracted the absorbance at 570 nm.

PDGF-DD = molecular target: T2, PDGF-DD (Homo sapiens, UniProt Q9GZP0); test: vWF binding to recombinant GFs (ELISA); details: VEGF-A121 signal as baseline
T2 construct: All GFs and chemokines were purchased in their mature forms; purchased PeproTech; host or cells: eukaryotic cells (not further specified)
T2 sequence (Q9GZP0 250-370 limits assumed): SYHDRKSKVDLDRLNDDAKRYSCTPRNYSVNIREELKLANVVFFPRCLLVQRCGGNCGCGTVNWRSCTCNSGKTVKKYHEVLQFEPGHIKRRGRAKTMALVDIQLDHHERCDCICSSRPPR
Method: as §1

CXCL-11 = molecular target: T3, CXCL-11 (Homo sapiens, UniProt O14625); test: vWF binding to recombinant GFs (ELISA); details: VEGF-A121 signal as baseline
T3 construct: All growth factors (GFs) and chemokines were purchased in their mature forms; purchased PeproTech; host or cells: Escherichia coli
T3 sequence (O14625 22-94): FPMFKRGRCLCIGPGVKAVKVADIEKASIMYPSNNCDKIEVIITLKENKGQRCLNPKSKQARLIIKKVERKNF
Method: as §1

BMP-7 = molecular target: T4, BMP-7 (Homo sapiens, UniProt P18075); test: vWF binding to recombinant GFs (ELISA); details: VEGF-A121 signal as baseline
T4 construct: All GFs and chemokines were purchased in their mature forms; purchased PeproTech; host or cells: eukaryotic cells (not further specified)
T4 sequence (P18075 293-431): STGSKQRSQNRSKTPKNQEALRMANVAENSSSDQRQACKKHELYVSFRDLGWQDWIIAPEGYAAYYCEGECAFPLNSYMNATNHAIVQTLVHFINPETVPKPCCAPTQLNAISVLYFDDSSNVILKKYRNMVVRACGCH
Method: as §1

CXCL-12γ [1] = molecular target: T5, CXCL-12γ (Homo sapiens, UniProt P48061); test: vWF binding to recombinant GFs (ELISA); details: VEGF-A121 signal as baseline
T5 construct: All GFs and chemokines were purchased in their mature forms; purchased R & D Systems; host or cells: Escherichia coli
T5 sequence (P48061 22-119 isoform P48061-3): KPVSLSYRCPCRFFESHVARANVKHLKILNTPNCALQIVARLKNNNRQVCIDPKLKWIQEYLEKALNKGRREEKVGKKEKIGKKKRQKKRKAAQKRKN
Method: as §1

TGF-β1 = molecular target: T6, TGF-β1 (Homo sapiens, UniProt P01137); test: vWF binding to recombinant GFs (ELISA); details: VEGF-A121 signal as baseline
T6 construct: All GFs and chemokines were purchased in their mature forms; purchased PeproTech; host or cells: eukaryotic cells (not specified)
T6 sequence (P01137 279-390 limits assumed, species assumed): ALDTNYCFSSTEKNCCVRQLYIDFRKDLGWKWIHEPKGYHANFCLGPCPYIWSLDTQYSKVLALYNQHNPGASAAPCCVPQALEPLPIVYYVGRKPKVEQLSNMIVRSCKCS
Method: as §1

TGF-β3 = molecular target: T7, TGF-β3 (Homo sapiens, UniProt P10600); test: vWF binding to recombinant GFs (ELISA); details: VEGF-A121 signal as baseline
T7 construct: All GFs and chemokines were purchased in their mature forms; purchased PeproTech; host or cells: eukaryotic cells (not specified)
T7 sequence (P10600 301-412 limits assumed): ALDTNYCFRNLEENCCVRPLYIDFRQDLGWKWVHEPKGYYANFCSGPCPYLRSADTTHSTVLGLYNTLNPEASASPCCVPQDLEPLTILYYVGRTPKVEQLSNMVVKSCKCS
Method: as §1

VEGF-A165 = molecular target: T8, VEGF-A165 (Homo sapiens, UniProt P15692); test: vWF binding to recombinant GFs (ELISA); details: VEGF-A121 signal as baseline
T8 construct: All growth factors (GFs) and chemokines were purchased in their mature forms; purchased PeproTech; host or cells: Escherichia coli
T8 sequence (P15692 27-191 isoform P15692-4 limits assumed): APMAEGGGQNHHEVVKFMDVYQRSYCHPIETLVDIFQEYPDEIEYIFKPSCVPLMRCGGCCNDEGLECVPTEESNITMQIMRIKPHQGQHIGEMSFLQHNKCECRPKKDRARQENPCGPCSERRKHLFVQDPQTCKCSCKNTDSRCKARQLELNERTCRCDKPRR
Method: as §1

BMP-2 = molecular target: T9, BMP-2 (Homo sapiens, UniProt P12643); test: vWF binding to recombinant GFs (ELISA); design: All GFs and chemokines were purchased in their mature forms; purchased PeproTech; host or cells: Escherichia coli; details: VEGF-A121 signal as baseline
T9 sequence (P12643 283-396): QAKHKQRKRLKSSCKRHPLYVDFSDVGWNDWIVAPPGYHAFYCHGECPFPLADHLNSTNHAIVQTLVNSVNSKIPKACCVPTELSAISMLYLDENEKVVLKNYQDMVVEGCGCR
Method: as §1

VEGF-A121 = molecular target: T10, VEGF-A121 (Homo sapiens, UniProt P15692); test: vWF binding to recombinant GFs (ELISA); design: All GFs and chemokines were purchased in their mature forms; purchased PeproTech; host or cells: Escherichia coli; details: non-binding reference
T10 sequence (P15692 27-147 isoform P15692-9 limits assumed): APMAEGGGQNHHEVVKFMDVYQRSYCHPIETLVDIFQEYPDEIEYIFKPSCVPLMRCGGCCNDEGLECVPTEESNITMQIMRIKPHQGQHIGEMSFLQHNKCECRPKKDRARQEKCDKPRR
Method: as §1

PlGF-2 = molecular target: T11, PlGF-2 (Homo sapiens, UniProt P49763); test: vWF binding to recombinant GFs (ELISA); design: All GFs and chemokines were purchased in their mature forms; purchased PeproTech; host or cells: Escherichia coli; details: VEGF-A121 signal as baseline
T11 sequence (P49763 19-170 isoform P49763-3 limits assumed): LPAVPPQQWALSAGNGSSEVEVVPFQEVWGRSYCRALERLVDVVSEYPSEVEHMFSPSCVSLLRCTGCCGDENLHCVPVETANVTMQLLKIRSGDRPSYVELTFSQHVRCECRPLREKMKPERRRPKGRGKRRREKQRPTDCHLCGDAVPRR
Method: as §1

FGF-2 = FGF-2 (Homo sapiens, UniProt P09038); test: vWF binding to recombinant GFs (ELISA); design: All GFs and chemokines were purchased in their mature forms; purchased PeproTech; host or cells: Escherichia coli; details: VEGF-A121 signal as baseline
Sequence of FGF-2 (P09038 143-288): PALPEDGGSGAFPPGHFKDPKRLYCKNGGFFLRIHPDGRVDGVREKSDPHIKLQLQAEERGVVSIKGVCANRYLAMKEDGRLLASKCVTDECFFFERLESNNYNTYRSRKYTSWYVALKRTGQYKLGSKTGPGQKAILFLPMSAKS
Method: as §1

CXCL-12γ [2] = molecular target: T5, CXCL-12γ; test: Recombinant GF binding to the vWF recombinant protein and A1 HBD peptide (ELISA); details: plate coated with vWF protein, A1 domain or HBD peptide, 1 μg/mL GF
Method: ELISA tests were performed as described above. In brief, ELISA plates were coated with 1 μg/mL of FL-vWF (WT or R1341Q), 1 μg/mL of vWF A1 recombinant protein (U-Protein Express) or 1 μg/mL of vWF A1 HBD peptide (sequence […], (SEQ ID NO:50) chemically synthesized by Genscript) at 37° C. overnight. After blocking with 2% BSA solution containing PBS-T, 1 μg/mL of the recombinant human proteins VEGF-A121, VEGF-A165, PlGF-1, PlGF-2, PDGF-BB, FGF-2, CXCL-12α and CXCL-12γ were added. 1 μg/mL of BSA served as non-binding protein control. Bound GF or chemokine was detected with biotinylated antibodies for human VEGF-A, PlGF, PDGF-BB, FGF-2, or CXCL-12 (R & D Systems). The antibodies were detected by streptavidin-HRP (R & D Systems). Color development and the absorbance measurement were done as described above.

T1 sequence (P48061 22-89 limits assumed): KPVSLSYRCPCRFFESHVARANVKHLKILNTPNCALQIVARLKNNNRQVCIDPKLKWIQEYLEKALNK

| Substance | vWF binding to CXCL-12α (CXCL-12α) | vWF binding to PDGF-DD (PDGF-DD) | vWF binding to CXCL-11 (CXCL-11) | vWF binding to BMP-7 (BMP-7) | vWF binding to CXCL-12γ (CXCL-12γ [1]) | vWF binding to TGF-β1 (TGF-β1) | vWF binding to TGF-β3 (TGF-β3) | vWF binding to VEGF-A165 (VEGF-A165) | vWF binding to BMP-2 (BMP-2) | vWF binding to VEGF-A121 (VEGF-A121) | vWF binding to PlGF-2 (PlGF-2) | vWF binding to FGF-2 (FGF-2) | binding to CXCL-12γ (CXCL-12γ [2]) |
| --- | --- | --- | --- | --- | --- | --- | --- | --- | --- | --- | --- | --- | --- |
| vWF: human plasma-derived von Willebrand factor (EMD Millipore) | did not | bound | bound | not | strong binding signal | strong binding | not | bound | strong binding | not | bound | bound | – |
| YIGLKDRKRPSELRRIASQVKYAC [vWF HBD] | – | – | – | – | – | – | – | – | – | – | – | – | showed binding |
